The values that follow come from US20230012273A1 (Boehringer Ingelheim, published 2023).

Experiment [1] concerns the target T1, full-length human SIRPγ (NP_061026.2) on cells (human, UniProt Q9P1W8 29-387).
T1 construct: also called CHO-hSIRPγ; γ WT
As to the kind of experiment: flow cytometry, CHO cells; CHO cells expressing hSIRPγ; n = 1. The method, then:
Antibody binding to cells expressing human SIRPγ(NP_061026.2) is evaluated by flow cytometry. SIRPγ-expressing CHO cells are blocked with donkey IgG and incubated on ice with increasing concentrations of antibody for 60 minutes, washed and stained with AF647-conjugated donkey F(ab′)₂ anti-human IgG secondary reagent. Cells are washed, fixed, and analyzed by flow cytometry. Median fluorescent intensity is determined and used as a measure of antibody binding.
On the technique in general: Flow cytometry measures light scatter and fluorescence of single cells or particles in a stream.
T1 sequence (Q9P1W8 29-387): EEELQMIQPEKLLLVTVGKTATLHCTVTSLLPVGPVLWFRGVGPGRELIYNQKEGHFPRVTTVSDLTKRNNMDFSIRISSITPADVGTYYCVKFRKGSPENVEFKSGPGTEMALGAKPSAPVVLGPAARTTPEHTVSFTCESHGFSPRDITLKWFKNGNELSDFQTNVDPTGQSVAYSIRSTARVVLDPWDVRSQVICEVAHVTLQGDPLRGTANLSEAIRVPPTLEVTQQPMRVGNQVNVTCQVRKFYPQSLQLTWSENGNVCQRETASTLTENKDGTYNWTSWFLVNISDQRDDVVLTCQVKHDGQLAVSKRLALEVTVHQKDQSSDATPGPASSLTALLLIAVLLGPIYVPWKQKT

Experiment [2] has as its target T2, full-length human SIRPβ1 (NP_006056.2) on cells (human, UniProt O00241 30-398).
T2 construct: also called β1 WT
As to the kind of experiment: flow cytometry, U937 SIRPα-KO cells expressing full-length human SIRPβ1. The method, then:
Antibody binding to cells expressing full-length human SIRPβ1 (NP_006056.2) and SIRPβL (NP_001129316.1) is evaluated by flow cytometry. SIRPβ1- or SIRPβL-expressing U937^{SIRPα KO} cells are blocked with donkey IgG and incubated on ice with increasing concentrations of antibodies for 60 minutes, washed and stained with AF647-conjugated donkey F(ab′)₂ anti-human IgG secondary reagent. Cells are washed, fixed, and analyzed by flow cytometry. Median fluorescent intensity is determined and used as a measure of antibody binding.

The target of experiment [3] is T3, cynomolgus SIRPβ1v3 extracellular domain + His-tag (XP_005568593) (cynomolgus monkey).
T3 construct: also called Cyno SIRPβ1v3; cynoSIRPβ1v3
T3 chain: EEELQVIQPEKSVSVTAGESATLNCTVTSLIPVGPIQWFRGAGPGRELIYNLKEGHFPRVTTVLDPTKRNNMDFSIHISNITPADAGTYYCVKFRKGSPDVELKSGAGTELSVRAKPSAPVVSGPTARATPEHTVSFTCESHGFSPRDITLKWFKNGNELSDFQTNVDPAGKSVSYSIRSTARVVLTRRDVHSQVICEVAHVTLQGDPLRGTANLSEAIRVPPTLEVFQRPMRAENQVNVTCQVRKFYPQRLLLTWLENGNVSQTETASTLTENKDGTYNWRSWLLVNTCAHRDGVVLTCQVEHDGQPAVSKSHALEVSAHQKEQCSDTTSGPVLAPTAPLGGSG
As to the kind of experiment: SPR, Ab captured, ECD-His analyte. Put shortly:
(§1)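 In HBS-EP+ (1×), captured antibodies are exposed to a twofold concentration series of SIRP extracellular domain carrying a His tag, using 300 s contact at 30 μl/min and a 600 s dissociation window.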
On the technique in general: Surface plasmon resonance follows binding to a sensor surface in real time, without labels.

In experiment [4] the target is T4, cynomolgus SIRPα extracellular domain + His-tag (EGM_02252) (cynomolgus monkey).
T4 construct: also called CySIRPα EGM_02252; cynoSIRPα
T4 chain: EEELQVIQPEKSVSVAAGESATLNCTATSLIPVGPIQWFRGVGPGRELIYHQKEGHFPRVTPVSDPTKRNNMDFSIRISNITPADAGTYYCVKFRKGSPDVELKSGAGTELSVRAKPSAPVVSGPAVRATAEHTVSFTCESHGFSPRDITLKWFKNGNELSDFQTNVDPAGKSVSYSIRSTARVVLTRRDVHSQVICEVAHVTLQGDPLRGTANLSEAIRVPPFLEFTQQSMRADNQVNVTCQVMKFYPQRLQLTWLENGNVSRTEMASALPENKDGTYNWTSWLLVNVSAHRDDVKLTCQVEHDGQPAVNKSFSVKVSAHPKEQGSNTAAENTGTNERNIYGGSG
Description: SPR, Ab captured, ECD-His analyte. Put shortly:
as §1

The target in experiment [5] is T5, mouse SIRPα extracellular domain + His-tag (NP_031573) (mouse, UniProt P97797 32-373).
T5 chain: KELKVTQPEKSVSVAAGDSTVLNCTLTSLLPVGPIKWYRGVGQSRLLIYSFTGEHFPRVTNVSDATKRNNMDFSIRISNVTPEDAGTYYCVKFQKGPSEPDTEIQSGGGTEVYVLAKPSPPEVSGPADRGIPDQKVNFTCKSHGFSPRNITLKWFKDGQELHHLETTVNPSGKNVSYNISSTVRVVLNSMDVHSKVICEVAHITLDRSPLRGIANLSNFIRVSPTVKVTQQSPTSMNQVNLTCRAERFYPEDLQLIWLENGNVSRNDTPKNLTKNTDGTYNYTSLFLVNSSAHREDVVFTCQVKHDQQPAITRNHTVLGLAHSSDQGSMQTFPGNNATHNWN
Description: SPR, Ab captured, ECD-His analyte. Put shortly: as §1

Experiment [6] has as its target T6, cynomolgus SIRPα extracellular domain + His-tag (NP_001271679) (cynomolgus monkey).
T6 construct: also called CySIRPα NP_001271679; cynoSIRPα
T6 chain: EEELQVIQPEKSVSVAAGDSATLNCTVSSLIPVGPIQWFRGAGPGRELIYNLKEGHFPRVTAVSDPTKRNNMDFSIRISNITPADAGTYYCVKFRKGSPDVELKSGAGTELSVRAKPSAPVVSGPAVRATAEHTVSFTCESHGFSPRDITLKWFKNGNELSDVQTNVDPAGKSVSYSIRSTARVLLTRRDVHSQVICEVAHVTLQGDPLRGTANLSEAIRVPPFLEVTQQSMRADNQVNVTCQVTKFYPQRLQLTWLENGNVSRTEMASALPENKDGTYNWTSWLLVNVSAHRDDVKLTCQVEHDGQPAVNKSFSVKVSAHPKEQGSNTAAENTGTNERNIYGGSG
As to the kind of experiment: SPR, Ab captured, ECD-His analyte. The method in brief: as §1

Experiment [7] concerns the target T7, full-length human SIRPγ (NP_061026.2) on cells (human, UniProt Q9P1W8 29-387).
T7 construct: on CHO and Expi-CHO cells; endogenous on primary human CD3+ T cells; also called γ WT
As to the kind of experiment: flow cytometry, primary human CD3+ T cells. Put shortly: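 PBMCs blocked with donkey IgG were incubated on ice for 60 min with increasing antibody concentrations, then detected with AF647 donkey F(ab′)₂ anti-human IgG. After fixation, median fluorescence intensity of the gated CD3+ population served as the binding measure.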
T7 sequence (Q9P1W8 29-387): as the sequence (Q9P1W8 29-387) above

T2 sequence (O00241 30-398): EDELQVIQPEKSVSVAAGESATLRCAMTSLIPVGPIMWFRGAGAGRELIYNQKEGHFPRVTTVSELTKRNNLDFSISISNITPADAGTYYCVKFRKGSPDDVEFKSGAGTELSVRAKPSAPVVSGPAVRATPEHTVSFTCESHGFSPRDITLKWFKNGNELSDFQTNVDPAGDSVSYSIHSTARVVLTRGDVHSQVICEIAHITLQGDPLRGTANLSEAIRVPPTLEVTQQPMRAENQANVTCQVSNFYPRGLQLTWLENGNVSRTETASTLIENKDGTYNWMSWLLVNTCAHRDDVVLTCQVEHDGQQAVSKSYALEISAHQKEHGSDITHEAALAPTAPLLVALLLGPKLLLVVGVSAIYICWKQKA

B1: Antibody B (antibody, human IgG1, kappa, L234A L235A, V domains shown)
VH: QVQLVQSGAEVKKPGASVKVSCKASGYTFTGNYMHWVRQAPGQGLEWMGWINPNSGGTNYAQKFQGRVTMTRDTSISTAYMELSRLRSDDTAVYYCVSGSGWYENYYYYGMDVWGQGTTVTVSS
VL: DIQMTQSPSSVSASVGDRVTITCRASQGISSWLAWYQQKPGKAPKLLIYAESSLQSGVPSRFSGSGSGTDFTLTISSLQPEDFATYYCQQANSFPLTFGGGTKVEIKR
By EC50 is commonly meant the concentration needed to bring the measured effect to its halfway point. A lower EC50 goes with higher potency in that assay. With B1, the concentration giving a half-maximal response (EC50) in experiment [1] was 11.8 nM.

B2: Antibody E22 (antibody, human IgG1, kappa, L234A L235A, V domains shown)
VH: QVQLQESGPGLVKPSETLSLTCTVSGGSIRDYYWSWIRQPPGKGLEWIGFIYYNGRTFYQSSLKSRVTISLDTSKNQFSLKMTSVTAADTAVYYCARVRAYSGIGLDGTDVWGQGTTVTVSS
VL: DIVMTQSPLSLPVTPGEPASISCRSSQSLLYSTGYTYLDWYLQRPGQSPQLLIYGGSSRASGVPDRFSGSGSGTDFTLKISRVEAEDVGVFYCGQALQTPLTFGQGTKVEIKR
As to B2, in experiment [2], the binding result is recorded as “no binding (tested: about 200 nM)”.

B3: Antibody A (antibody, human IgG1, kappa, L234A L235A)
heavy: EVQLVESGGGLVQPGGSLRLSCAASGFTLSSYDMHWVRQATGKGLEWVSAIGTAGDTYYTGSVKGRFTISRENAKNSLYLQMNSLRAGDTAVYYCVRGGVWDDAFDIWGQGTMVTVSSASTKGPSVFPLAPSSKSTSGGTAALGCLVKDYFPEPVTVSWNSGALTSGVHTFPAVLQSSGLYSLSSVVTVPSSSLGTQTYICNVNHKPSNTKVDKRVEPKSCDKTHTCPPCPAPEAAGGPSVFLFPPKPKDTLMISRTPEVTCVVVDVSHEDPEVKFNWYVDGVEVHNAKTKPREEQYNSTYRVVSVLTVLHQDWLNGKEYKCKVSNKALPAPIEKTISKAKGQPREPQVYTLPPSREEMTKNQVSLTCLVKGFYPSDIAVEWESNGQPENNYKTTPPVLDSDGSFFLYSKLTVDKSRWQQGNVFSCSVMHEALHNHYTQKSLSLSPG
light: DIQMTQSPSSLSASVGDRVTITCRASQDINNYLAWFQQKPGKAPKSLIYTASSLHSGVPSKFSGSGSGTDFTLTISSLQPEDFATYYCQQYVSYPYTFGQGTKLEIKRTVAAPSVFIFPPSDEQLKSGTASVVCLLNNFYPREAKVQWKVDNALQSGNSQESVTEQDSKDSTYSLSSTLTLSKADYEKHKVYACEVTHQGLSSPVTKSFNRGEC
What is called Kd is the equilibrium constant for the complex coming apart. For B3, the dissociation constant (Kd) came to 201 nM in experiment [3], 201 nM in experiment [4] and 453 nM in experiment [6]. For the same molecule, the binding result in experiment [5] is reported as “no binding”.

B4: Antibody A10 (antibody, human IgG1, kappa, L234A L235A)
heavy: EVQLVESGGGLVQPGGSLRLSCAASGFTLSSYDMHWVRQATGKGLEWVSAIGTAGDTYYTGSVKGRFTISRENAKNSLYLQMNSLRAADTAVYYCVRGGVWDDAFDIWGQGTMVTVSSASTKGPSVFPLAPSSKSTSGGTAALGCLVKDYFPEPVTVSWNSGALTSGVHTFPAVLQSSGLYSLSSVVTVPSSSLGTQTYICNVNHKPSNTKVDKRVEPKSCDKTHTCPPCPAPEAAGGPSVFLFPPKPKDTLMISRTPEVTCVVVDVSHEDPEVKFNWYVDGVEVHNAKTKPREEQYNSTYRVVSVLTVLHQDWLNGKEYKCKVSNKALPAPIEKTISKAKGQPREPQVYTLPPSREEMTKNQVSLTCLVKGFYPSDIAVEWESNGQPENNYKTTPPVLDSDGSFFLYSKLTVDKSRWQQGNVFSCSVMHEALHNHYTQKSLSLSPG
light: B3 light
Regarding B4, in experiment [7], the binding result is reported as “no binding”.
